{
  "source": "paper PMC6488122",
  "biological_target": "ERα-LBD (ligand binding domain of estrogen receptor α)",
  "experiment": "other fluorescence titration; quenching of the endogenous fluorescence of ERα-LBD (0.2 μm, 600 μL) by microaddition of CTX solution; excitation 295 nm, slits 10 nm, 25°C",
  "data": [
    {"substance": "chlorotoxin (CTX), recombinant, cut from GST-CTX (from UniProt P45639 1-36) (peptide)", "values": [
      {"measurement": "Ka", "result": "3e+07", "unit": "M⁻¹"}
    ]}
  ]
}
